# Source: article PMC7501309, “Structure and mechanism of a dehydratase/decarboxylase enzyme couple involved in polyketide β-methyl branch incorporation” (Scientific Reports, 2020)
# Target: the molecule itself
# Assay: SEC; analytical Superdex 200 10/60; 100 µl at 0.5 mg/ml; 50 mM Tris-HCl, 150 mM NaCl, 5% glycerol, pH 7.5 (legend: 20 mM Tris-HCl, 150 mM NaCl, pH 7.5); elution compared with standards
row,Protein,stoichiometry N
1,"PksH, bacillaene synthase dehydratase (wild type) (enzyme, Bacillus subtilis 168, UniProt P40805 1-259, looked up, PksH of Bacillus subtilis 168, amplified from genomic DNA and cloned into pET28a (NdeI/XhoI); The His tag is thrombin cleavable (pET28a); also called WT PksH; source: E. coli BL21(DE3), purified (HisTrap, Superdex 200 SEC)) MDLVTYQTIKVRFQASVCYITFHRPEANNTINDTLIEECLQVLNQCETSTVTVVVLEGLPEVFCFGADFQEIYQEMKRGRKQASSQEPLYDLWMKLQTGPYVTISHVRGKVNAGGLGFVSATDIAIADQTASFSLSELLFGLYPACVLPFLIRRIGRQKAHYMTLMTKPISVQEASEWGLIDAFDAESDVLLRKHLLRLRRLNKKGIAHYKQFMSSLDHQVSRAKATALTANQDMFSDPQNQMGIIRYVETGQFPWEDQ",3
2,"PksI, bacillaene synthase decarboxylase (wild type) (enzyme, Bacillus subtilis 168, PksI of Bacillus subtilis 168, amplified from genomic DNA and cloned into pOPINF; the crystal models hold residues 1-249; The His tag is 3C protease cleavable (pOPINF); also called WT PksI; source: E. coli BL21(DE3), purified (HisTrap, Superdex 200 SEC)) MTHSVVELIEIESAIIQVKMQDRTHKNAFSQELTDDLIQAFEYIRQNPKYKAVILTGYDNYFASGGTQEGLLRIQQGLTKFTDDNLYSLALDCEIPVIAAMQGHGIGGGFVMGLFADIVILSRESVYTANFMKYGFTPGMGATFIVPKKLGFSLAQEILLNAGSYRGADLEKRGVPFKVLPRAEVLDYAVELAQELAEKPRNSLVTLKDHLVAPLRDQLPRVIEQELMMHEKTFHHEEVKSRIKGLYGN",3
